Experimental data as given in PMC11446282.
Where a chain is given by its changes, count along the chain named.

B1: CDCA4 K44: CDCA4, K44 to alanine (protein, UniProt Q9BXL8 1-241, looked up, variant K44A)
Cell division …: MFARGLKRKCVGHEEDVEGALAGLKTVSSYSLQRQSLLDMSLVALQLCHMLVEPNLCRSVLIANTVRQIQEEMTQDGTWRTVAPQAAERAPLDRLVSTEILCRAAWGQEGAHPAPGLGDGHTQGPVSDLCPVTSAQAPRHLQSSAWEMDGPRENRGSFHKSLDQIFETLETKNPSCMEELFSDVDSPYYDLDTVLTGMMGGARPGPCEGLEGLAPATPGPSSSCKSDLGELDHVVEILVET
B2: CDCA4 L45: CDCA4, L45 to alanine (protein, UniProt Q9BXL8 1-241, looked up, variant L45A)
Cell division …: B1 Cell division … with A44K, L45A
B3: CDCA4 Q46: CDCA4, Q46 to alanine (protein, UniProt Q9BXL8 1-241, looked up, variant Q46A)
Cell division …: B1 Cell division … with A44K, Q46A
B4: CDCA4 V52: CDCA4, V52 to alanine (protein, UniProt Q9BXL8 1-241, looked up, variant V52A)
Cell division …: B1 Cell division … with A44K, V52A
B5: CDCA4 E53: CDCA4, E53 to alanine (protein, UniProt Q9BXL8 1-241, looked up, variant E53A)
Cell division …: B1 Cell division … with A44K, E53A
B6: CDCA4 P54: CDCA4, P54 to alanine (protein, UniProt Q9BXL8 1-241, looked up, variant P54A)
Cell division …: B1 Cell division … with A44K, P54A
B7: CDCA4 N55: CDCA4, N55 to alanine (protein, UniProt Q9BXL8 1-241, looked up, variant N55A)
Cell division …: B1 Cell division … with A44K, N55A
B8: IER2 Q24: IER2, Q24 to alanine (protein, UniProt Q9BTL4 1-223, looked up, variant Q24A)
Immediate early response gene …: MEVQKEAQRIMTLSVWKMYHSRMARGGLRLHRSLQLSLVMRSARELYLSAKVEALEPEVSLPAALPSDPRLHPPREAESTAETATPDGEHPFPEPMDTQEAPTAEETSACCAPRPAKVSRKRRSSSLSDGGDAGLVPSKKARLEEKEEEEGASSEVADRLQPPPAQAEGAFPNLARVLQRRFSGLLNCSPAAPPTAPPACEAKPACRPADSMLNVLVRAVVAF
B9: IER2 R25: IER2, R25 to alanine (protein, UniProt Q9BTL4 1-223, looked up, variant R25A)
Immediate early response gene …: B8 Immediate early response gene … with A24Q, R25A
B10: IER2 G26: IER2, G26 to alanine (protein, UniProt Q9BTL4 1-223, looked up, variant G26A)
Immediate early response gene …: B8 Immediate early response gene … with A24Q, G26A
B11: IER2 G27: IER2, G27 to alanine (protein, UniProt Q9BTL4 1-223, looked up, variant G27A)
Immediate early response gene …: B8 Immediate early response gene … with A24Q, G27A
B12: IER2 L28: IER2, L28 to alanine (protein, UniProt Q9BTL4 1-223, looked up, variant L28A)
Immediate early response gene …: B8 Immediate early response gene … with A24Q, L28A
B13: IER2 R29: IER2, R29 to alanine (protein, UniProt Q9BTL4 1-223, looked up, variant R29A)
Immediate early response gene …: B8 Immediate early response gene … with A24Q, R29A
B14: IER2 L30: IER2, L30 to alanine (protein)
chain: B8 Immediate early response gene … with A24Q, L30A
B15: IER2 H31: IER2, H31 to alanine (protein, UniProt Q9BTL4 1-223, looked up, variant H31A)
Immediate early response gene …: B8 Immediate early response gene … with A24Q, H31A
B16: IER2 R32: IER2, R32 to alanine (protein, UniProt Q9BTL4 1-223, looked up, variant R32A)
Immediate early response gene …: B8 Immediate early response gene … with A24Q, R32A
B17: IER2 S33: IER2, S33 to alanine (protein, UniProt Q9BTL4 1-223, looked up, variant S33A)
Immediate early response gene …: B8 Immediate early response gene … with A24Q, S33A
B18: IER2 L34: IER2, L34 to alanine (protein)
chain: B8 Immediate early response gene … with A24Q, L34A
B19: IER2 Q35: IER2, Q35 to alanine (protein, UniProt Q9BTL4 1-223, looked up, variant Q35A)
Immediate early response gene …: B8 Immediate early response gene … with A24Q, Q35A
B20: IER2 L36: IER2, L36 to alanine (protein, UniProt Q9BTL4 1-223, looked up, variant L36A)
Immediate early response gene …: B8 Immediate early response gene … with A24Q, L36A
B21: IER2 S37: IER2, S37 to alanine (protein, UniProt Q9BTL4 1-223, looked up, variant S37A)
Immediate early response gene …: B8 Immediate early response gene … with A24Q, S37A
B22: IER2 Q8: IER2, Q8 to alanine (protein, UniProt Q9BTL4 1-223, looked up, variant Q8A)
Immediate early response gene …: B8 Immediate early response gene … with Q8A, A24Q
B23: IER2 R9: IER2, R9 to alanine (protein, UniProt Q9BTL4 1-223, looked up, variant R9A)
Immediate early response gene …: B8 Immediate early response gene … with R9A, A24Q
B24: IER2 I10: IER2, I10 to alanine (protein, UniProt Q9BTL4 1-223, looked up, variant I10A)
Immediate early response gene …: B8 Immediate early response gene … with I10A, A24Q
B25: IER2 M11: IER2, M11 to alanine (protein, UniProt Q9BTL4 1-223, looked up, variant M11A)
Immediate early response gene …: B8 Immediate early response gene … with M11A, A24Q
B26: IER2 T12: IER2, T12 to alanine (protein, UniProt Q9BTL4 1-223, looked up, variant T12A)
Immediate early response gene …: B8 Immediate early response gene … with T12A, A24Q
B27: IER2 L13: IER2, L13 to alanine (protein, UniProt Q9BTL4 1-223, looked up, variant L13A)
Immediate early response gene …: B8 Immediate early response gene … with L13A, A24Q
B28: RBM7 M147: RBM7, M147 to alanine (protein, UniProt Q9Y580 2-266, looked up, variant M147A)
RNA-binding protein 7: GAAAAEADRTLFVGNLETKVTEELLFELFHQAGPVIKVKIPKDKDGKPKQFAFVNFKHEVSVPYAMNLLNGIKLYGRPIKIQFRSGSSHAPQDVSLSYPQHHVGNSSPTSTSPSRYERTMDNMTSSAQIIQRSFSSPENFQRQAVANSALRQMSYGGKFGSSPLDQSGFSPSVQSHSHSFNQSSSSQWRQGTPSSQRKVRMNSYPYLADRHYSREQRYTDHGSDHHYRGKRDDFFYEDRNHDDWSHDYDNRRDSSRDGKWRSSRH
B29: RBM7 N148: RBM7, N148 to alanine (protein, UniProt Q9Y580 2-266, looked up, variant N148A)
RNA-binding protein 7: B28 RNA-binding protein 7 with A146M, N147A
B30: RBM7 S149: RBM7, S149 to alanine (protein, UniProt Q9Y580 2-266, looked up, variant S149A)
RNA-binding protein 7: B28 RNA-binding protein 7 with A146M, S148A
B31: RBM7 L151: RBM7, L151 to alanine (protein, UniProt Q9Y580 2-266, looked up, variant L151A)
RNA-binding protein 7: B28 RNA-binding protein 7 with A146M, L150A
B32: RBM7 R152: RBM7, R152 to alanine (protein, UniProt Q9Y580 2-266, looked up, variant R152A)
RNA-binding protein 7: B28 RNA-binding protein 7 with A146M, R151A
B33: RBM7 Q153: RBM7, Q153 to alanine (protein, UniProt Q9Y580 2-266, looked up, variant Q153A)
RNA-binding protein 7: B28 RNA-binding protein 7 with A146M, Q152A
B34: RBM7 P138: RBM7, P138 to alanine (protein, UniProt Q9Y580 2-266, looked up, variant P138A)
RNA-binding protein 7: B28 RNA-binding protein 7 with P137A, A146M
B35: RBM7 E139: RBM7, E139 to alanine (protein, UniProt Q9Y580 2-266, looked up, variant E139A)
RNA-binding protein 7: B28 RNA-binding protein 7 with E138A, A146M
B36: RBM7 N140: RBM7, N140 to alanine (protein, UniProt Q9Y580 2-266, looked up, variant N140A)
RNA-binding protein 7: B28 RNA-binding protein 7 with N139A, A146M
B37: RBM7 F141: RBM7, F141 to alanine (protein, UniProt Q9Y580 2-266, looked up, variant F141A)
RNA-binding protein 7: B28 RNA-binding protein 7 with F140A, A146M
B38: RBM7 Q142: RBM7, Q142 to alanine (protein, UniProt Q9Y580 2-266, looked up, variant Q142A)
RNA-binding protein 7: B28 RNA-binding protein 7 with Q141A, A146M
B39: RBM7 R143: RBM7, R143 to alanine (protein, UniProt Q9Y580 2-266, looked up, variant R143A)
RNA-binding protein 7: B28 RNA-binding protein 7 with R142A, A146M
B40: RBM7 V146: RBM7, V146 to alanine (protein, UniProt Q9Y580 2-266, looked up, variant V146A)
RNA-binding protein 7: B28 RNA-binding protein 7 with V145A, A146M

The molecules below were run on PP2A-B55α (assay: Single alanine mutational scan, YFP-tagged interactors immunoprecipitated from HeLa cells, Western blot). Conditions: single alanine mutant of YFP-tagged CDCA4.
Format: binding, human
Method: Standard cloning techniques were used throughout. Point mutations were introduced by whole plasmid polymerase chain reaction (PCR). All constructs were fully sequenced. Synthetic DNA was purchased from GeneArt, Life Technologies and cloned into pcDNA5/FRT/TO (Invitrogen) expression vector containing YFP, resulting in the indicated YFP fusion proteins. These constructs were transiently transfected into HeLa cells 24 hours before harvesting cells. Cells were lysed in lysis buffer [50 mM tris-HCl (pH 7.5), 50 mM NaCl, 1 mM EDTA, 1 mM […], and 0.1% NP-40]. Complexes were immunoprecipitated at 4°C in lysis buffer with green fluorescent protein (GFP)–Trap (ChromoTek) and washed in lysis buffer. Precipitated protein complexes were washed three times in lysis buffer, eluted in 2× SDS sample buffer, and subjected to Western blotting or MS as indicated.
Molecule B1 has an Experimental % binding of 22%. B2 gave an Experimental % binding of 86%. Molecule B3 has an Experimental % binding of 61%. With B4 the Experimental % binding was 82%. B5 was tested, and the Experimental % binding was 153%. Molecule B6 has an Experimental % binding of 66%. With B7 the Experimental % binding was 99%.

Same assay, conditions: single alanine mutant of YFP-tagged IER2
Molecule B8 has an Experimental % binding of 118%. For B9, the Experimental % binding was 76%. With B10 the Experimental % binding was 87%. B11 was tested, and the Experimental % binding was 77%. With B12 the Experimental % binding was 102%. With B13 the Experimental % binding was 90%. Molecule B14 has an Experimental % binding of 81%. B15 showed an Experimental % binding of 61%. B16 was tested, and the Experimental % binding was 70%. B17 showed an Experimental % binding of 58%. In the case of B18, the Experimental % binding is reported as 74%. B19 showed an Experimental % binding of 67%. B20 showed an Experimental % binding of 66%. B21 was tested, and the Experimental % binding was 62%. B22 showed an Experimental % binding of 90%. For B23, the Experimental % binding was 78%. For B24, the Experimental % binding was 81%. B25 gave an Experimental % binding of 81%. B26 gave an Experimental % binding of 94%. B27 was tested, and the Experimental % binding was 80%.

Same assay, conditions: single alanine mutant of YFP-tagged RBM7
With B28 the Experimental % binding was 9%. Molecule B29 has an Experimental % binding of 29%. For B30, the Experimental % binding was 109%. In the case of B31, the Experimental % binding is reported as 47%. B32 was tested, and the Experimental % binding was 62%. In the case of B33, the Experimental % binding is reported as 131%. With B34 the Experimental % binding was 92%. In the case of B35, the Experimental % binding is reported as 77%. B36 was tested, and the Experimental % binding was 5%. Work on B37 yielded an Experimental % binding of 4%. For B38, the Experimental % binding was 67%. B39 gave an Experimental % binding of 5%. For B40, the Experimental % binding was 7%.
